From the RNAGym collection of RNA variant scans (doi:10.7554/elife.80360)

B1: CPEB3 Ribozyme (parent)
chain: GGGGGCCACAGCAGAAGCGUUCACGUCGCGGCCCCUGUCAGAUUCUGGUGAAUCUGCGAAUUCUGCUGU

Variants of: B1
Assay: self-cleavage, relative activity (ratio to wild type); higher = more cleavage; co-transcriptional
With A51G A52U the self-cleavage was 0.902. With A51G A59U the self-cleavage was 0.859. A51G A60G gave a self-cleavage of 0.939. A51G A60U showed a self-cleavage of 0.589. Work on A51G C54A yielded a self-cleavage of 0.854. In the case of A51G C54G, the self-cleavage is reported as 0.858. A51G C54U gave a self-cleavage of 0.986. A51G C57A showed a self-cleavage of 0.399. For A51G C57U, the self-cleavage was 0.321. Work on A51G C63A yielded a self-cleavage of 0.884. A51G C63G gave a self-cleavage of 0.772. Work on A51G C63U yielded a self-cleavage of 0.96. With A51G G56U the self-cleavage was 0.95. Work on A51G G58C yielded a self-cleavage of 1.01. With A51G G58U the self-cleavage was 1.01. A51G G65A gave a self-cleavage of 0.948. A51G G65C showed a self-cleavage of 0.715. A51G G65U gave a self-cleavage of 0.872. Work on A51G G68A yielded a self-cleavage of 1.01. With A51G G68C the self-cleavage was 0.911. In the case of A51G G68U, the self-cleavage is reported as 1.03. Variant A51G U53A has a self-cleavage of 0.981. A51G U53C showed a self-cleavage of 0.899. For A51G U53G, the self-cleavage was 0.839. A51G U55C gave a self-cleavage of 0.839. A51G U55G showed a self-cleavage of 0.63. Work on A51G U61A yielded a self-cleavage of 0.833. A51G U61G showed a self-cleavage of 0.85. With A51G U62A the self-cleavage was 0.98. A51G U62C gave a self-cleavage of 0.884. For A51G U62G, the self-cleavage was 0.89. In the case of A51G U64A, the self-cleavage is reported as 0.991. In the case of A51G U64C, the self-cleavage is reported as 0.949. In the case of A51G U64G, the self-cleavage is reported as 0.917. For A51G U67A, the self-cleavage was 0.967. In the case of A51G U67C, the self-cleavage is reported as 0.99. A51G U67G showed a self-cleavage of 1.01. In the case of A51G U69A, the self-cleavage is reported as 0.995. With A51G U69G the self-cleavage was 1.03. A51U showed a self-cleavage of 0.994. Variant A51U A52C has a self-cleavage of 0.969. A51U A52G showed a self-cleavage of 0.982. Work on A51U A59C yielded a self-cleavage of 0.645. A51U A59U gave a self-cleavage of 0.762. Work on A51U A60C yielded a self-cleavage of 0.378. In the case of A51U A60G, the self-cleavage is reported as 0.891. A51U A60U gave a self-cleavage of 0.438. For A51U C54G, the self-cleavage was 0.677. A51U C54U showed a self-cleavage of 0.932. A51U C57G showed a self-cleavage of 0.238. With A51U C57U the self-cleavage was 0.388. A51U C63G gave a self-cleavage of 0.815. For A51U C63U, the self-cleavage was 0.996. Variant A51U C66A has a self-cleavage of 0.706. With A51U C66G the self-cleavage was 0.752. In the case of A51U C66U, the self-cleavage is reported as 0.981. A51U G58U gave a self-cleavage of 0.954. In the case of A51U G65A, the self-cleavage is reported as 0.889. Work on A51U G65U yielded a self-cleavage of 0.765. With A51U G68A the self-cleavage was 0.999. In the case of A51U G68C, the self-cleavage is reported as 1. In the case of A51U G68U, the self-cleavage is reported as 1.01. Variant A51U U53C has a self-cleavage of 0.863. A51U U53G showed a self-cleavage of 0.825. Work on A51U U55A yielded a self-cleavage of 0.696. Variant A51U U55C has a self-cleavage of 0.561. A51U U61A gave a self-cleavage of 0.932. Variant A51U U61G has a self-cleavage of 0.772. For A51U U62A, the self-cleavage was 0.931. Variant A51U U62C has a self-cleavage of 0.892. Variant A51U U62G has a self-cleavage of 0.868. A51U U64A gave a self-cleavage of 0.799. Work on A51U U64C yielded a self-cleavage of 0.788. A51U U64G showed a self-cleavage of 0.826. In the case of A51U U67A, the self-cleavage is reported as 0.976. For A51U U67C, the self-cleavage was 1.01. For A51U U67G, the self-cleavage was 1. A51U U69A gave a self-cleavage of 1.01. Variant A51U U69C has a self-cleavage of 1.07. With A51U U69G the self-cleavage was 1.06. A52C showed a self-cleavage of 0.993. In the case of A52C A59C, the self-cleavage is reported as 0.527. A52C A59G gave a self-cleavage of 0.985. A52C A60U showed a self-cleavage of 0.476. A52C C54A showed a self-cleavage of 0.615. Work on A52C C54G yielded a self-cleavage of 0.562. A52C C54U gave a self-cleavage of 0.856. A52C C57G showed a self-cleavage of 0.26. Variant A52C C63G has a self-cleavage of 0.688. With A52C C63U the self-cleavage was 0.973. Variant A52C C66A has a self-cleavage of 0.68. Variant A52C C66G has a self-cleavage of 0.782. In the case of A52C C66U, the self-cleavage is reported as 0.912. In the case of A52C G56C, the self-cleavage is reported as 0.536. In the case of A52C G56U, the self-cleavage is reported as 0.741. In the case of A52C G58U, the self-cleavage is reported as 0.977. A52C G65A showed a self-cleavage of 0.88. In the case of A52C G65C, the self-cleavage is reported as 0.582. Work on A52C G65U yielded a self-cleavage of 0.765. A52C G68U gave a self-cleavage of 0.979. Variant A52C U53A has a self-cleavage of 0.936. Variant A52C U53C has a self-cleavage of 0.806. With A52C U55A the self-cleavage was 0.631. A52C U55C showed a self-cleavage of 0.686. Variant A52C U55G has a self-cleavage of 0.56. In the case of A52C U61A, the self-cleavage is reported as 0.893. In the case of A52C U61C, the self-cleavage is reported as 0.759. A52C U61G gave a self-cleavage of 0.67. For A52C U62A, the self-cleavage was 0.882. Work on A52C U62C yielded a self-cleavage of 0.811. In the case of A52C U64C, the self-cleavage is reported as 0.842. A52C U64G gave a self-cleavage of 0.829. A52C U67A gave a self-cleavage of 0.963. A52C U69C gave a self-cleavage of 1.05. Work on A52C U69G yielded a self-cleavage of 1.05. With A52G the self-cleavage was 0.995. In the case of A52G A60C, the self-cleavage is reported as 0.336. In the case of A52G A60G, the self-cleavage is reported as 0.922. Work on A52G C54A yielded a self-cleavage of 0.931. A52G C54U gave a self-cleavage of 1.02. In the case of A52G C57G, the self-cleavage is reported as 0.23. In the case of A52G C57U, the self-cleavage is reported as 0.407. In the case of A52G C63A, the self-cleavage is reported as 0.907. A52G C63G showed a self-cleavage of 0.865. Variant A52G C63U has a self-cleavage of 1. A52G C66A gave a self-cleavage of 0.845. Work on A52G C66U yielded a self-cleavage of 0.971. Work on A52G G56A yielded a self-cleavage of 0.983. A52G G56C gave a self-cleavage of 0.819. In the case of A52G G56U, the self-cleavage is reported as 0.97. In the case of A52G G58A, the self-cleavage is reported as 0.926. In the case of A52G G58U, the self-cleavage is reported as 1. With A52G G65A the self-cleavage was 0.945. With A52G G68A the self-cleavage was 1.01. Variant A52G G68C has a self-cleavage of 0.975. Variant A52G U53A has a self-cleavage of 0.917. In the case of A52G U55A, the self-cleavage is reported as 0.914. In the case of A52G U55G, the self-cleavage is reported as 0.729. A52G U61C showed a self-cleavage of 0.879. Variant A52G U62A has a self-cleavage of 0.871. For A52G U62C, the self-cleavage was 0.915. Work on A52G U62G yielded a self-cleavage of 0.963. Variant A52G U64A has a self-cleavage of 0.911. For A52G U64C, the self-cleavage was 0.912. In the case of A52G U64G, the self-cleavage is reported as 0.957. A52G U67A showed a self-cleavage of 1. For A52G U69A, the self-cleavage was 0.985. A52G U69C showed a self-cleavage of 1.06. A52G U69G gave a self-cleavage of 1.07. A52U showed a self-cleavage of 0.99. For A52U A59C, the self-cleavage was 0.716. In the case of A52U A59G, the self-cleavage is reported as 0.972. For A52U A59U, the self-cleavage was 0.803. A52U A60C gave a self-cleavage of 0.47. With A52U A60G the self-cleavage was 0.808. For A52U A60U, the self-cleavage was 0.486. Variant A52U C54A has a self-cleavage of 0.907. A52U C54G gave a self-cleavage of 0.835. A52U C57A gave a self-cleavage of 0.453. Variant A52U C57G has a self-cleavage of 0.334. A52U C57U showed a self-cleavage of 0.309. In the case of A52U C63A, the self-cleavage is reported as 0.789. A52U C63G showed a self-cleavage of 0.72. In the case of A52U C66A, the self-cleavage is reported as 0.701. Work on A52U C66U yielded a self-cleavage of 0.973. Variant A52U G56C has a self-cleavage of 0.456. With A52U G58C the self-cleavage was 0.954.
